Results published in the supplement of paper PMC9170038.

Test system: MS2 coat protein
Assay: apparent KD of MS2 coat protein; designed switch direction (-1 OFF switch, 1 ON switch): 1; higher = weaker reporter binding
Method in brief: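 Apparent KD, taken as the median over clusters for each design, was obtained by curve-fitting normalised cluster fluorescence. Designed RNA switches had been transcribed on Illumina chips by stalled E. coli RNA polymerase and titrated with SNAP-549-labelled MS2 coat protein, doubling from 0.7 or 1.5 nM to 3 µM.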

[1] = input ligand: microRNA oligo, concentration not stated
[2] = Eterna round: R95, input ligand: FMN 200 uM
[3] = Eterna round: R95, input ligand: microRNA oligo, concentration not stated
[4] = Eterna round: R95, input ligand: none

Sequence: AUAAAACAUGAGGAUCACCCAUGUAGACGGAGAAACGUCACAUAGGAUAUAGUCAGCGGCGUUGACUAGAAGGGUGGUAGAAAA [Qubeedbi] (Eterna round: R96, puzzle: Same State NG 3)
- apparent KD of MS2 coat protein (input ligand: FMN 200 uM): 286 nM
- apparent KD of MS2 coat protein [1]: 97.4 nM
- apparent KD of MS2 coat protein (input ligand: none): 251 nM

Sequence: UUGAAGAAUUAAGGAUAUCGAGUCAAGAUGUUAAACAUGAGGAUCACCCAUGUGGGUUGCGGUAUCGAGAAGGUAAAUUACAAG [JL SSNG2 1.41] (Eterna round: R96, puzzle: Same State NG 2)
- apparent KD of MS2 coat protein (input ligand: FMN 200 uM): 34.8 nM
- apparent KD of MS2 coat protein [1]: 26.9 nM
- apparent KD of MS2 coat protein (input ligand: none): 34.9 nM

Sequence: GUGGUCAGACAUGAGGAUCACCCAUGUGGAAUAAAUAACGUCAAGGAUAUUCAAUAUAGGAUAUAGAAGAAGGUGAGAUUGGUG (Eterna round: R96, puzzle: Same State NG 3)
- apparent KD of MS2 coat protein [1]: 142 nM

Sequence: UUUAGAUUCAGAGGAUAUUGAUGUUGUAAGUAACAAGAAGGCUGAAUGGUUAGAAUUGUUUAUUAACAUGAGGAUCACCCAUGU [JR_SSNG1_Sub009] (Eterna round: R96, puzzle: Same State NG 1)
- apparent KD of MS2 coat protein (input ligand: FMN 200 uM): 17 nM
- apparent KD of MS2 coat protein [1]: 17.1 nM
- apparent KD of MS2 coat protein (input ligand: none): 20.8 nM

Sequence: CGGGUACAUGAGGAUCACCCAUGUGGAAGAGAUGCAGGAUAUGUGGGAAAAGGGAAUGUAACAGAAGGGCAAGGAG [JR_SS!_Sub016] (puzzle: Same State 1)
- apparent KD of MS2 coat protein [2]: 53.4 nM
- apparent KD of MS2 coat protein [3]: 64.1 nM
- apparent KD of MS2 coat protein [4]: 144 nM

Sequence: GAGAGACAUGAGGAUCACCCAUGUAGAAUAGAACAAGGAUAUGUGGAAGGCGGAGGAGAGACAGAAGGUGUAGGAA [JR_SS1_Sub054] (puzzle: Same State 1)
- apparent KD of MS2 coat protein [2]: 62.5 nM
- apparent KD of MS2 coat protein [3]: 76.8 nM
- apparent KD of MS2 coat protein [4]: 84.9 nM

Sequence: AGUAGUUUAACAUGAGGAUCACCCAUGUAUUUUUCUGUAACCUAGGAUAUGGGCGUUGUAUUUAUCCAGAAGGAGGAUCGUUUA [JR_SSNG3_Sub048] (Eterna round: R96, puzzle: Same State NG 3)
- apparent KD of MS2 coat protein (input ligand: FMN 200 uM): 30.3 nM
- apparent KD of MS2 coat protein [1]: 28.3 nM
- apparent KD of MS2 coat protein (input ligand: none): 31.1 nM

Sequence: UUUCUCAUGUAAGGAUAUGCAGCCGUUUCGGCUGCAGAAGGUACUAUAAUACAUGAGGAUCACCCAUGUCUCUCGCAUUGCGAG [JL SSNG1 1.48] (Eterna round: R96, puzzle: Same State NG 1)
- apparent KD of MS2 coat protein (input ligand: FMN 200 uM): 263 nM
- apparent KD of MS2 coat protein [1]: 28.9 nM
- apparent KD of MS2 coat protein (input ligand: none): 62 nM

Sequence: GCCGUAUACAUGAGGAUCACCCAUGUUGACGCGAGAGUGGAUGAGGAUAUCGAUGGGUUUCCCGUCGAGAAGGCGUGGGUCGGC [JL SSNG3 3.00] (Eterna round: R96, puzzle: Same State NG 3)
- apparent KD of MS2 coat protein (input ligand: FMN 200 uM): 49.8 nM
- apparent KD of MS2 coat protein [1]: 30.5 nM
- apparent KD of MS2 coat protein (input ligand: none): 46.1 nM

Sequence: GAUCGUUUGAUAGGAUAUCGCUAUACAUGAGGAUCACCCAUGUUUACCACGCUGGUUUUUCGUACCGAGAAGGAUUCUGAUGAU [JL JR sub007 mod 5] (Eterna round: R96, puzzle: Same State NG 2)
- apparent KD of MS2 coat protein (input ligand: FMN 200 uM): 31.4 nM
- apparent KD of MS2 coat protein [1]: 24.4 nM
- apparent KD of MS2 coat protein (input ligand: none): 35.4 nM

Sequence: GCAGUGGCGGUAGGAUAUCUAGGAUAUGGGAAAGACUAAGUCUGUAGGUCACCUAACCCAGAAGGAGAGAAGGACCCUGUAAGG [pwkr ssNG2 2FMN + F9.21] (Eterna round: R96, puzzle: Same State NG 2)
- apparent KD of MS2 coat protein (input ligand: FMN 200 uM): 348 nM
- apparent KD of MS2 coat protein [1]: 74.7 nM
- apparent KD of MS2 coat protein (input ligand: none): 222 nM

Sequence: AAUUAAGAUCAAGGAUAUCACGUCGAAUAGACGUGAGAAGGUGAUAAUUACAUGAGGAUCACCCAUGUAUAACAUGAAUUAAUU [SSNG1/9-B1] (Eterna round: R96, puzzle: Same State NG 1)
- apparent KD of MS2 coat protein (input ligand: FMN 200 uM): 30 nM
- apparent KD of MS2 coat protein [1]: 24.8 nM
- apparent KD of MS2 coat protein (input ligand: none): 38 nM

Sequence: UCUUGGUUUUUGCUCGUUUUUUGUGUUGAACAUGAGGAUCACCCAUGUAUUGUACGGUCCAAUUUGAUAAUGGUCCG [JMF 27] (puzzle: Sensor for hsa-mir-208a)
- apparent KD of MS2 coat protein [2]: 25.1 nM
- apparent KD of MS2 coat protein [3]: 13.9 nM
- apparent KD of MS2 coat protein [4]: 25.6 nM

Sequence: UGUAUACAUGAGGAUCACCCAUGUCAACGUAGUCGAGGAUAUGGGCAGCCGUGAGGCGUACCAGAAGGCGAAGAGG [JL-ss1-3.05 ViennaUCT mod] (Eterna round: R96, puzzle: Same State 1)
- apparent KD of MS2 coat protein (input ligand: FMN 200 uM): 36.5 nM
- apparent KD of MS2 coat protein [1]: 104 nM
- apparent KD of MS2 coat protein (input ligand: none): 151 nM

Sequence: AGAGGAAGGGCAGGAUAUACGACGGAGGACGAGGUAGAAGGGUCCAUGUGAUAACAUGAGGAUCACCCAUGUACCGCGCGACGA [AK SSNG1-V2-18] (Eterna round: R96, puzzle: Same State NG 1)
- apparent KD of MS2 coat protein (input ligand: FMN 200 uM): 147 nM
- apparent KD of MS2 coat protein [1]: 43.1 nM
- apparent KD of MS2 coat protein (input ligand: none): 832 nM

Sequence: UCUUGGUUUUUGCUCGUUUUUUGUGUUGAACAUGAGGAUCACCCAUGUAUUGUACGGUCCAAUUUAGUAAUGGUCCG [JMF 26] (puzzle: Sensor for hsa-mir-208a)
- apparent KD of MS2 coat protein [2]: 25.4 nM
- apparent KD of MS2 coat protein [3]: 13.2 nM
- apparent KD of MS2 coat protein [4]: 23.6 nM

Sequence: GUGGUGUAGAUACAGGAUAUGUUGCUCGUAACAUGAGGAUCACCCAUGUAUAUAUGAGAUUAAAUGCAGAAGGGUGCACACCACG [Mat - Same State 2 - Mod of UCT - D76] (puzzle: Same State 2)
- apparent KD of MS2 coat protein [2]: 24.6 nM
- apparent KD of MS2 coat protein [3]: 18.9 nM
- apparent KD of MS2 coat protein [4]: 13.3 nM

Sequence: UGUUAUUUGACAGGAUAUUGAUUGUUAAGUUUUUACAUGAGGAUCACCCAUGUUGUUCAUUCGUACAAGAAGGGUCAAGUUUUU [JR_SSNG2_Sub020] (Eterna round: R96, puzzle: Same State NG 2)
- apparent KD of MS2 coat protein [1]: 52.6 nM

Sequence: CGGGUACAUGAGGAUCACCCAUGUGGGAGGGAUGCAGGAUAUGUGGGAGGAGGGUAUGAAACAGAAGGGCAAGGAG [JR_SS!_Sub012] (puzzle: Same State 1)
- apparent KD of MS2 coat protein [2]: 46.7 nM
- apparent KD of MS2 coat protein [3]: 48.9 nM
- apparent KD of MS2 coat protein [4]: 65.5 nM

Sequence: AAAGAUGGACAUGAGGAUCACCCAUGUGGAAAGUGAACAAGCUUUUGCUCGUGACAAAUGAACAAUCCAAUCCUAAA [mksensor] (puzzle: Sensor for hsa-mir-208a version 2)
- apparent KD of MS2 coat protein [2]: 26.3 nM
- apparent KD of MS2 coat protein [3]: 24.5 nM
- apparent KD of MS2 coat protein [4]: 25 nM

Sequence: AGCUAGUACCGAGGAUAUACGAACAUGAGGAUCACCCAUGUAUACAUGGUUUAAUGAGACUACAUGUAGAAGGCGGUACUAGCA [SameState NG2 #11] (Eterna round: R96, puzzle: Same State NG 2)
- apparent KD of MS2 coat protein (input ligand: FMN 200 uM): 1110 nM
- apparent KD of MS2 coat protein [1]: 281 nM
- apparent KD of MS2 coat protein (input ligand: none): 624 nM

Sequence: AGUCCAGCCAAAGCUGGACAAAAGCAUGUACAUGAGGAUCACCCAUGUUCAUGUACAAGCUUUUUGCUCGUCUUAAA [Mat - hsa-mir-208a - Mod of JL - 56] (puzzle: Sensor for hsa-mir-208a)
- apparent KD of MS2 coat protein [2]: 413 nM
- apparent KD of MS2 coat protein [3]: 16.1 nM
- apparent KD of MS2 coat protein [4]: 465 nM

Sequence: GUAUAACAUGAGGAUCACCCAUGUCAUCUAAGUCGAGGAUAUGGGAAUUAAUUAAUUAAACCAGAAGGCGAAAAUU [Mat - Same State 1 - D92] (puzzle: Same State 1)
- apparent KD of MS2 coat protein [2]: 79 nM
- apparent KD of MS2 coat protein [3]: 364 nM
- apparent KD of MS2 coat protein [4]: 492 nM

Sequence: AGAUAGUGUGGAAAGGAUAUACGGUUGAGGACAUGAGGAUCACCCAUGUAGUAGAGGAAGGAAGGGUAGAAGGUUCAGGAUUGAU [JR_SS2_Sub018] (puzzle: Same State 2)
- apparent KD of MS2 coat protein [2]: 70.2 nM
- apparent KD of MS2 coat protein [3]: 43.1 nM
- apparent KD of MS2 coat protein [4]: 50.4 nM
